According to US20180362616A1 (NATIONAL INSTITUTE FOR BIOTECHNOLOGY IN THE NEGEV, published 2018):
Positions count from the first letter of the chain named. Numbers in names are those of the source.

Legend:
[1] = target: T1, Factor XIa (human, UniProt P03951 19-625); test: inhibition of FXIa cleavage of S-2366
T1 construct: also called FXIa

[2] = target: T2, human mesotrypsin (catalytically active) (human, UniProt P35030 81-304); test: inhibition of mesotrypsin cleavage of Z-GPR-pNA
T2 construct: mature; In the invasion assays it is the endogenous enzyme of PC3-M cells; also called active mesotrypsin; PRSS3 gene product
T2 sequence (looked up): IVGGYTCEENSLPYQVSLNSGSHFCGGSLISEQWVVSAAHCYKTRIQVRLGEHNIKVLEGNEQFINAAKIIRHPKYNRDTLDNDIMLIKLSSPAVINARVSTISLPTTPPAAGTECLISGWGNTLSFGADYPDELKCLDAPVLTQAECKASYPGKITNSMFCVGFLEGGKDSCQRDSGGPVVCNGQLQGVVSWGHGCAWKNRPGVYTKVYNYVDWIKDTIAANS

[3] = target: T3, human Kallikrein-6 (human, UniProt Q92876 22-244); test: SPR, APPI held on nickel chip by its His tag, hK6 as analyte, 25° C.
[4] = target: T3, human Kallikrein-6; test: inhibition of hK6 catalytic activity, slow tight inhibition mechanism
[5] = target: T4, human anionic trypsin (human, UniProt P07478 24-247); test: inhibition of anionic trypsin cleavage of Z-GPR-pNA; slow tight-binding fit
T4 construct: mature

[6] = target: T5, human cationic trypsin (human, UniProt P07477 24-247); test: inhibition of cationic trypsin cleavage of Z-GPR-pNA; slow tight-binding fit
T5 construct: mature

[7] = target: T3, human Kallikrein-6; test: inhibition of kallikrein-6 cleavage of BOC-Phe-Ser-Arg-AMC; slow tight-binding fit
[8] = target: T2, human mesotrypsin (catalytically active); test: inhibition of mesotrypsin cleavage of Z-GPR-pNA; competitive inhibition fit (Equation 1)
[9] = target: T2, human mesotrypsin (catalytically active); test: cell-based or functional assay
[10] = target: T2, human mesotrypsin (catalytically active); test: Ki of soluble variant against APPI-WT
[11] = target: T2, human mesotrypsin (catalytically active); test: inhibition constant of soluble variant; target taken as mesotrypsin
[12] = target: T2, human mesotrypsin (catalytically active); test: cell-based or functional assay; remark: listed apart in the source
[13] = target: T2, human mesotrypsin (catalytically active); test: Ki against that of APPI-WT, mesotrypsin inhibition
[14] = target: T2, human mesotrypsin (catalytically active); test: inhibition of mesotrypsin cleavage of Z-GPR-pNA; slow tight-binding fit (Equation 2)
[15] = target: T2, human mesotrypsin (catalytically active); test: free energy change of association calculated from Ki of mesotrypsin inhibition (Equation 4), triple mutant cycle
[16] = target: T2, human mesotrypsin (catalytically active); test: Ki against that of APPI-WT, mesotrypsin inhibition (Equation 1)
[17] = target: T2, human mesotrypsin (catalytically active); test: Ki against that of APPI-WT, mesotrypsin inhibition (Equation 2)
[18] = target: T2, human mesotrypsin (catalytically active); test: inhibition of mesotrypsin activity
[19] = target: T3, human Kallikrein-6; test: SPR, APPI held on nickel chip by its His tag, hK6 as analyte
[20] = target: T1, Factor XIa; test: Ki of APPI-WT over Ki of APPI-M17G/I18F/F34V, FXIa
[21] = target: T2, human mesotrypsin (catalytically active); test: Ki of APPI-WT over Ki of APPI-M17G/I18F/F34V, mesotrypsin
[22] = target: T3, human Kallikrein-6; test: Ki of APPI-WT over Ki of APPI-M17G/I18F/F34V, kallikrein-6
[23] = target: T4, human anionic trypsin; test: Ki of APPI-WT over Ki of APPI-M17G/I18F/F34V, anionic trypsin
[24] = target: T5, human cationic trypsin; test: Ki of APPI-WT over Ki of APPI-M17G/I18F/F34V, cationic trypsin
[25] = target: T1, Factor XIa; test: by the numbers: Ki (fold) for mesotrypsin over Ki (fold) for FXIa
[26] = target: T2, human mesotrypsin (catalytically active); test: inhibition of mesotrypsin cleavage of Z-GPR-pNA; slow tight-binding fit
[27] = target: T3, human Kallikrein-6; test: by the numbers: Ki (fold) for mesotrypsin over Ki (fold) for kallikrein-6
[28] = target: T2, human mesotrypsin (catalytically active); test: by the numbers: Ki (fold) for mesotrypsin over Ki (fold) for this protease
[29] = target: T4, human anionic trypsin; test: by the numbers: Ki (fold) for mesotrypsin over Ki (fold) for anionic trypsin
[30] = target: T5, human cationic trypsin; test: by the numbers: Ki (fold) for mesotrypsin over Ki (fold) for cationic trypsin

B1: APPI-WT (SEQ ID NO: 25), soluble, expressed in Pichia pastoris (other)
chain: EVCSEQAETGPCRAMISRWYFDVTEGKCAPFFYGGCGGNRNNFDTEEYCMAVCGSAI
notes: Secreted from P. pastoris GS115, purified by nickel IMAC and gel filtration; also called WT APPI; not shown: N-terminal FLAG tag with the SnaBI/EcoRI-coded residues, and the C-terminal AvrII-coded residues plus His6
For B1, the Ki [1] was 0.41 nM, the Ki [2] was 131 nM and the Kd [3] was 7.91 nM. The Ki [4] was 2.24 nM, the Ki [5] was 0.00174 nM and the Ki [6] was 0.00627 nM. The Ki [7] was 2.23 nM and the Ki [8] was 131 nM.

B2: APPIT11V/M17G/I18F/F34V (SEQ ID NO: 9), soluble (designed binder)
chain: B1 chain with T9V, M15G, I16F, F32V
notes: not shown: AvrII site residues and C-terminal HIS6 tag
B2 was tested, and the “Kcat (1/s), proteolytic resistance” value [9] was 0.000347 s⁻¹, the “fold improvement in affinity relative to APPI-WT” value [10] was about 2000 fold and the Ki [11] was 0.0499 nM.

B3: APPI-M17G/F34V (SEQ ID NO: 21), soluble (designed binder)
chain: B1 chain with M15G, F32V
notes: as for B2
In the case of B3, the “Kcat (s^-1) of hydrolysis of APPI by mesotrypsin (HPLC time course)” value (shortened to “Kcat (s^-1) of hydrolysis of APPI”) [12] is reported as 0.00371 s⁻¹, the “Ki (fold)” value [13] is reported as 93.6 fold and the Ki [14] is reported as 1.4 nM. The “ΔΔGa, edge F34V to M17G/F34V” value [15] was -2.2 kcal/mol and the “ΔΔGa, edge M17G to M17G/F34V” value [15] was -0.53 kcal/mol.

B4: APPIT11C/M17G/I18F/F34C (SEQ ID NO: 11), soluble (designed binder)
chain: B1 chain with T9C, M15G, I16F, F32C
notes: as for B2
With B4 the “Kcat (1/s), proteolytic resistance” value [9] was 0.00521 s⁻¹ and the Ki [11] was 149 nM.

B5: APPI-M17G (SEQ ID NO: 18), soluble (designed binder)
chain: B1 chain with M15G
notes: as for B2
With B5 the “Kcat (s^-1) of hydrolysis of APPI” value [12] was 0.0156 s⁻¹, the “Ki (fold)” value [16] was 39.8 fold and the “Ki (fold)” value [17] was 34.8 fold. The Ki [14] was 3.69 nM, the Ki [8] was 3.29 nM and the “ΔΔGa, edge WT to M17G” value [15] was -2.26 kcal/mol.

B6: APPIM17L,I18F,S19F,F34V (SEQ ID NO: 13), soluble (designed binder)
chain: B1 chain with M15L, I16F, S17F, F32V
notes: also called APPI 3M G17L,S19F; not shown: His tag at the C-terminal
With B6 the Ki [18] was 5.38 nM, the “fold improvement in binding compared to APPI WT” value [19] was 22.5 fold and the Kd [3] was 0.351 nM.

B7: APPIM17G/I18F/K29L/F34V (SEQ ID NO: 10), soluble (designed binder)
chain: B1 chain with M15G, I16F, K27L, F32V
notes: as for B2
B7 was tested, and the “Kcat (1/s), proteolytic resistance” value [9] was 0.000535 s⁻¹, the “fold improvement in affinity relative to APPI-WT” value [10] was about 1000 fold and the Ki [11] was 0.0891 nM.

B8: APPIM17C/I18F/F34C (SEQ ID NO: 12), soluble (designed binder)
chain: B1 chain with M15C, I16F, F32C
notes: as for B2
B8 was tested, and the “Kcat (1/s), proteolytic resistance” value [9] was 0.00038 s⁻¹, the “fold improvement in affinity relative to APPI-WT” value [10] was about 2000 fold and the Ki [11] was 0.0524 nM.

B9: APPI-I18F/F34V (SEQ ID NO: 20), soluble (designed binder)
chain: B1 chain with I16F, F32V
notes: as for B2
For B9, the “Kcat (s^-1) of hydrolysis of APPI” value [12] was 0.00535 s⁻¹, the “Ki (fold)” value [13] was 39.8 fold and the Ki [14] was 3.3 nM. For the same binder, the “ΔΔGa, edge F34V to I18F/F34V” value [15] was -1.67 kcal/mol and the “ΔΔGa, edge I18F to I18F/F34V” value [15] was 0 kcal/mol.

B10: APPI-I18F (SEQ ID NO: 19), soluble (designed binder)
chain: B1 chain with I16F
notes: as for B2
With B10 the “Kcat (s^-1) of hydrolysis of APPI” value [12] was 0.0104 s⁻¹, the “Ki (fold)” value [13] was 39.8 fold and the Ki [8] was 3.29 nM. The “ΔΔGa, edge WT to I18F” value [15] was -2.26 kcal/mol.

B11: APPI-M17G/I18F (SEQ ID NO: 22), soluble (designed binder)
chain: B1 chain with M15G, I16F
notes: as for B2
B11 was tested, and the “Kcat (s^-1) of hydrolysis of APPI” value [12] was 0.00291 s⁻¹, the “Ki (fold)” value [13] was 290 fold and the Ki [14] was 0.453 nM. The “ΔΔGa, edge I18F to M17G/I18F” value [15] was -1.22 kcal/mol and the “ΔΔGa, edge M17G to M17G/I18F” value [15] was -1.22 kcal/mol.

B12: APPI-F34V (SEQ ID NO: 23), soluble (designed binder)
chain: B1 chain with F32V
notes: Variants were subcloned between EcoRI and AvrII of the APPI-WT pPIC9K template; not shown: AvrII site residues and C-terminal HIS6 tag
With B12 the “Kcat (s^-1) of hydrolysis of APPI” value [12] was 0.0161 s⁻¹, the “Ki (fold)” value [13] was 2.6 fold and the Ki [8] was 50.1 nM. The “ΔΔGa, edge WT to F34V” value [15] was -0.59 kcal/mol.

B13: APPI-M17G/I18F/F34V (SEQ ID NO: 8), soluble (designed binder)
chain: B1 chain with M15G, I16F, F32V
notes: also called APPI 3M; APPI^3M; not shown: AvrII site residues and C-terminal HIS6 tag
With B13 the “Kcat (s^-1) of hydrolysis of APPI” value [12] was 0.000429 s⁻¹, the Ki [1] was 98.4 nM and the “Ki (fold)” value [13] was 1460 fold. For the same binder, the “Ki (fold)” value [20] was 0.00416 fold, the “Ki (fold)” value [21] was 1460 fold and the “Ki (fold)” value [22] was 2.04 fold. For the same binder, the “Ki (fold)” value [23] was 1.18 fold, the “Ki (fold)” value [24] was 1.3 fold and the Ki [4] was 1.1 nM. For the same binder, the “specificity ratio (formula not given)” value [25] was 350000, the Ki [26] was 0.0898 nM and the “specificity ratio (formula not given)” value [27] was 715. The “specificity ratio (formula not given)” value [28] was 1, the Ki [5] was 0.00147 nM and the “specificity ratio (formula not given)” value [29] was 1240. For the same binder, the Ki [6] was 0.00496 nM, the “specificity ratio (formula not given)” value [30] was 1120 and the Ki [7] was 1.09 nM. It also gave a Ki [14] of 0.0898 nM.
